Data published in patent US20110117113A1, “IMMUNOGLOBULIN SINGLE VARIABLE DOMAIN DIRECTED AGAINST HUMAN CXCR4 AND OTHER CELL ASSOCIATED PROTEINS AND METHODS TO GENERATE THEM” (priority 2009, published 2011).
Substitutions are numbered along the chain they refer to.

B1: Nanobody 238D4 (VHH)
VHH: EVQLMESGGGLVQAGGSLRLSCAASGRTFNNYAMGWFRRAPGKEREFVAAITRSGVRSGVSAIYGDSVKDRFTISRDNAKNTLYLQMNSLKPEDTAVYTCAASAIGSGALRRFEYDYSGQGTQVTVSS
B2: 238D2: monovalent anti CXCR4 Nanobody, SEQ ID NO: 2 (protein)
VHH: EVQLVESGGGLVQTGGSLRLSCAASGFTFSSYAMSWVRQAPGKGLEWVSGIKSSGDSTRYAGSVKGRFTISRDNAKNMLYLQMYSLKPEDTAVYYCAKSRVSRTGLYTYDNRGQGTQVTVSS
modifications: Nanobody

Experiments:
[1] = biological target: T1, wildtype human CXCR4 (pcDNA3.1-CXCR4, expressed in HEK293T) (human, UniProt P61073 1-352); experiment: competition with [125I]-238D4, HEK293T-CXCR4 membranes
T1 construct: whole, on cells; also called hCXCR4; HEK293T CXCR4

[2] = biological target: CXCR4 mutation library clone 2084 (D187V) (human, UniProt P61073 1-352); experiment: immunofluorescence on HEK-293T expressing the clone, normalised to wild type
[3] = biological target: CXCR4 mutation library clone 3622 (E277G) (human, UniProt P61073 1-352); experiment: as above
[4] = biological target: CXCR4 mutation library clone 3630 (W195R) (human, UniProt P61073 1-352); experiment: as above
[5] = biological target: CXCR4 mutation library clone 2396 (S178C) (human, UniProt P61073 1-352); experiment: as above
[6] = biological target: CXCR4 mutation library clone 914 (N192K) (human, UniProt P61073 1-352); experiment: as above
[7] = biological target: T2, CXCR4 mutation library clone 3728 (D187A, Y157C) (human, UniProt P61073 1-352); experiment: as above
T2 chain: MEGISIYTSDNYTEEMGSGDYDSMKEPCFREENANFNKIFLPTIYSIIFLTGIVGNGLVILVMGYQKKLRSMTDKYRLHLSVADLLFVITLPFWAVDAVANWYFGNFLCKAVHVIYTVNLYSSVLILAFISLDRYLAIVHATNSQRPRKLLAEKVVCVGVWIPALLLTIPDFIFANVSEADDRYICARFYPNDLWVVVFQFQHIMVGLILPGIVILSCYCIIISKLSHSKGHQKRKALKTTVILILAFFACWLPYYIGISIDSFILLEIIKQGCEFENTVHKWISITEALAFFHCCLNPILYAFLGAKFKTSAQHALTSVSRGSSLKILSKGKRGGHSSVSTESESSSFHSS

[8] = biological target: T3, CXCR4 mutation library clone 414 (C218R, E179V, S351T) (human, UniProt P61073 1-352); experiment: as above
T3 chain: T2 chain with C157Y, E179V, A187D, C218R, S351T

[9] = biological target: CXCR4 mutation library clone 2270 (V196E) (human, UniProt P61073 1-352); experiment: as above
[10] = biological target: all CXCR4 library clones containing a mutation at E179; experiment: immunofluorescence, average over all clones with a mutation at E179
[11] = biological target: T4, CXCR4 mutation library (Human CXCR4-short) (Homo sapiens, UniProt P61073, F189S/K308R); experiment: Shotgun mutagenesis epitope mapping, immunofluorescence on CXCR4 mutation library in HEK-293T; assay type: binding; conditions: residue F189; mutations F189S, K308R; normalized to wild type; 3 experiments (+/−range)
T4 construct: expressed in transfected cells; host or cells: HEK-293T, transient, 384-well
From the text: (§1) Method: See e.g. Willis, et al. 2008. Virus-like particles as quantitative probes of membrane protein interactions. Biochemistry 47:6988-6990. In short, the method comprises the following steps:
(§2) Create comprehensive mutation library • Start with a cDNA in eukaryotic expression plasmid • Create library where every amino acid is individually mutated
(§3) Express each clone within living cells in 384-well microplates
(§4) Detect structure and/or function of proteins
(§5) • Parental plasmid: Human CXCR4-short (SEQ ID NO: 6, 352 amino acids) • Epitope tags: N-terminal Flag (to detect surface expression), C-terminal V5 (to detect full-length translation) • Cell types used for immunofluorescence assays: HEK-293T
(§6) The immunofluorescence assay conditions (to detect binding) were optimized for the nanbodies to be tested. In short, 384-well immunofluorescence (IF) assay using HEK-293T cells transiently was transfected with different concentrations of CXCR4 DNA. The plate was first incubated with different concentrations of either Nanobody 238D2 or 238D4, then with 9E10, and finally with Cy3. The commercially-available anti-CXCR4 MAb 12G5 was used as an IF control.
(§7) Mapping Nanobody Binding to CXCR4 Mutation Library: The entire library was screened in triplicate with each Nanobody. The data was background-subtracted and normalized to wild type reactivity and averaged across the repeats. Nanobody binding was plotted as a function of average surface expression, and measured by immunoreactivity of an N-terminal Flag epitope tag. Thresholds of 60% Flag and 30% Nanobody were used to identify critical clones. Using standard IF conditions, we identified 1 critical residue (2 critical clones). Using increased stringency assay conditions (high salt), we identified 5 additional residues (Tables C-3 and C-4).

[12] = biological target: T5, CXCR4 mutation library (Human CXCR4-short) (Homo sapiens, UniProt P61073, E179V/G258E); experiment: as above; assay type: binding; conditions: residue E179; mutations E179V, G258E; normalized to wild type; 3 experiments (+/−range)
T5 construct: expressed in transfected cells; host or cells: HEK-293T, transient, 384-well
From the text: as §1, §2, §3, §4, §5, §6, §7

[13] = biological target: T6, CXCR4 mutation library (Human CXCR4-short) (Homo sapiens, UniProt P61073, E277A/I245V/N298S); experiment: as above; assay type: binding; conditions: residue E277; mutations E277A, I245V, N298S; normalized to wild type; 3 experiments (+/−range); 238D2 critical residues under high stringency
T6 construct: expressed in transfected cells; host or cells: HEK-293T, transient, 384-well
From the text: as §1, §2, §3, §4, §5, §6, §7

[14] = biological target: T7, CXCR4 mutation library (Human CXCR4-short) (Homo sapiens, UniProt P61073, N192K); experiment: as above; assay type: binding; conditions: residue N192; mutation N192K; normalized to wild type; 3 experiments (+/−range); 238D2 critical residues under high stringency
T7 construct: expressed in transfected cells; host or cells: HEK-293T, transient, 384-well
From the text: as §1, §2, §3, §4, §5, §6, §7

T7 sequence (P61073 whole entry N192K): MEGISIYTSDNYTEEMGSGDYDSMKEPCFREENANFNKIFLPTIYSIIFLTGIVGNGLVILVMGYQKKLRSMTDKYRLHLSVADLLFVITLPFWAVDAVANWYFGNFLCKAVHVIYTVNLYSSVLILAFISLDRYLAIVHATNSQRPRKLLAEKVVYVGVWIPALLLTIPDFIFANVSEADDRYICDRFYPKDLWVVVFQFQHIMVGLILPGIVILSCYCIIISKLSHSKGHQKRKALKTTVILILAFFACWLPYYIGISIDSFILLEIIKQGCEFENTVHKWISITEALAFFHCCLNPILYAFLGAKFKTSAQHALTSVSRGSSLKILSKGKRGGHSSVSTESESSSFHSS
T5 sequence (P61073 whole entry E179V/G258E): as the sequence (P61073 whole entry N192K) above, with E179V, K192N, G258E counted along it
T4 sequence (P61073 whole entry F189S/K308R): as the sequence (P61073 whole entry N192K) above, with F189S, K192N, K308R counted along it
T1 sequence (P61073 whole entry): as the sequence (P61073 whole entry N192K) above, with K192N counted along it
T6 sequence (P61073 whole entry I245V/E277A/N298S): as the sequence (P61073 whole entry N192K) above, with K192N, I245V, E277A, N298S counted along it

| Molecule | pKi [1] | % immunofluorescence [2] | % immunofluorescence [3] | % immunofluorescence [4] | % immunofluorescence [5] | % immunofluorescence [6] | % immunofluorescence [7] | % immunofluorescence [8] | % immunofluorescence [9] | average nanobody reactivity [10] | % immunofluoresence, clone 913 [11] | % immunofluoresence, clone 2834 [12] | % immunofluoresence, clone 185 [13] | % immunofluoresence, clone 914 [14] |
| --- | --- | --- | --- | --- | --- | --- | --- | --- | --- | --- | --- | --- | --- | --- |
| B1 | 8.55 pKi | -8% | 52.5% | 58.8% | 28.2% | 55.8% | -16.4% | 8% | 94% | 13.8% | – | – | – | – |
| B2 | – | – | – | – | – | – | – | – | – | – | −32.6 (18.7) % | 84.6 (7.8) % | 35.5 (12.3) % | 8.3 (3.6) % |
